Results published in article PMC9896810, “Crk proteins activate the Rap1 guanine nucleotide exchange factor C3G by segregated adaptor-dependent and -independent mechanisms” (Cell Communication and Signaling : CCS, 2023).

T1: C3G-AAPA (human, UniProt Q13905-1 4-1077, P283A | P284A | L286 | P287 | P289A | P453A | P454A | L456A | P457A | K459A | …)
T1 construct: human C3G isoform a, residues 4-1077; only P3 kept, P1, P2 and P4 mutated to Ala; source: E. coli BL21 (DE3), purified (IMAC, TEV digestion, reversed IMAC, SEC); not shown: His, N-terminal, cleaved; Halo, N-terminal, cleaved
T1 sequence (looked up): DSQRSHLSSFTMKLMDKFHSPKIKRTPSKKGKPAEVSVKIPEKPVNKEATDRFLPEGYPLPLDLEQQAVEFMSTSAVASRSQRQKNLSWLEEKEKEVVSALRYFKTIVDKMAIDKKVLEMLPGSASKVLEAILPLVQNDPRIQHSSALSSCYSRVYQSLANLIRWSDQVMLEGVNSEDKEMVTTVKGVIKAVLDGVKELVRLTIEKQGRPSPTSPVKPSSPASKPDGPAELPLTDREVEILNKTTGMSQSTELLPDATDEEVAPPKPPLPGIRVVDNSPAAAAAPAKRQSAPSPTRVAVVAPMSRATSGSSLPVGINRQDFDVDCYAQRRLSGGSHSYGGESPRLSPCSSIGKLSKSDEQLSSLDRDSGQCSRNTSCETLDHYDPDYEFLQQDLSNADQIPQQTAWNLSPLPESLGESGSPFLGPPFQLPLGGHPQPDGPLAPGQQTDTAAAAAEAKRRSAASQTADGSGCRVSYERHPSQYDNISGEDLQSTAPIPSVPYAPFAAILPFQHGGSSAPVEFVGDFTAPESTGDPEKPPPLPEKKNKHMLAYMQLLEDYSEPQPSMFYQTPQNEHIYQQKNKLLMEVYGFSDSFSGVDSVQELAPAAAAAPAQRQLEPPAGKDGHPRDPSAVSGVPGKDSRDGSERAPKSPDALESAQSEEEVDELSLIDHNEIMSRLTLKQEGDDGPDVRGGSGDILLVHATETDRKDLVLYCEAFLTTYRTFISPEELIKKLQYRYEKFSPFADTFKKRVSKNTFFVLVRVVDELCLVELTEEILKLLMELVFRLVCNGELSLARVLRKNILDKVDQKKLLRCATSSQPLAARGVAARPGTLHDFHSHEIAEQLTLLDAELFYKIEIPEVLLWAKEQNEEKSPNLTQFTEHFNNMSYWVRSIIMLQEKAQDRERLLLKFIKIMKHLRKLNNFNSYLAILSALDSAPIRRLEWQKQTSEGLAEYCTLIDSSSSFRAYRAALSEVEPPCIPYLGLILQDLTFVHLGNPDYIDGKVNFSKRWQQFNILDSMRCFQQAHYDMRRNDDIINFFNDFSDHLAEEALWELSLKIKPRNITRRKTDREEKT

T2: C3G-AAPA-Y554H (human, UniProt Q13905-1 4-1077, P283A | P284A | L286 | P287 | P289A | P453A | P454A | L456A | P457A | K459A | …)
T2 construct: human C3G isoform a, residues 4-1077; source: E. coli BL21 (DE3), purified (IMAC, TEV digestion, reversed IMAC, SEC); not shown: His, N-terminal, cleaved; Halo, N-terminal, cleaved
T2 sequence (looked up): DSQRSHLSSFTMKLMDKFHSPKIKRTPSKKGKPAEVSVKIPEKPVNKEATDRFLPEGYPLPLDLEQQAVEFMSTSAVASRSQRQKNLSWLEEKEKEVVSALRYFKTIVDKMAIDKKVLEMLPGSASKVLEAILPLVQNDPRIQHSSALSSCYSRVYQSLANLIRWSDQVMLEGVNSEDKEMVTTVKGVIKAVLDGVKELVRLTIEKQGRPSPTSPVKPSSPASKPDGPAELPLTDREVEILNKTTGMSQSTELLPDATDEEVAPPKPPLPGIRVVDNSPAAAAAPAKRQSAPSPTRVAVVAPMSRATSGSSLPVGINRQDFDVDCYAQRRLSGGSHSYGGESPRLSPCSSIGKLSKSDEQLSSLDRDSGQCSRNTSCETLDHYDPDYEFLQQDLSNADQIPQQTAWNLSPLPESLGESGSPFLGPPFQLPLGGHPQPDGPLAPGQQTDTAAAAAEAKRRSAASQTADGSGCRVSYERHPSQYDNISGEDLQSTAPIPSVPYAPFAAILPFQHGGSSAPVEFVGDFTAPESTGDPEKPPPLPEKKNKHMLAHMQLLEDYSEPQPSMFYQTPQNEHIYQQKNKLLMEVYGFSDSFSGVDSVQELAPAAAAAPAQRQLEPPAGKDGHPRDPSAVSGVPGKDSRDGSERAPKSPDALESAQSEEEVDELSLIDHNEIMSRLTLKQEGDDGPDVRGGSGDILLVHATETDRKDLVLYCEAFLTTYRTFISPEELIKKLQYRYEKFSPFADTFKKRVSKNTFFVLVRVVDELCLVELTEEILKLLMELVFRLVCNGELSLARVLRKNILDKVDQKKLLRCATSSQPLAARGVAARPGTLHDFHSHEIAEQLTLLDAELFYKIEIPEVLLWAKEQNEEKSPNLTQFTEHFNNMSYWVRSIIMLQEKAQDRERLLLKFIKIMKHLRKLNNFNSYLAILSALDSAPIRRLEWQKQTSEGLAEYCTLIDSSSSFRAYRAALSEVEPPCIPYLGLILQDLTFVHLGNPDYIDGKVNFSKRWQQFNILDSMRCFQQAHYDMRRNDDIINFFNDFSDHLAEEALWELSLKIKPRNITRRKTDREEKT


Columns and labels:
C3G-AAPA = biological target: T1, C3G-AAPA; assay: ITC; single-PRM mutant of C3G in the cell titrated with CrkL or CrkL-SH3N, 25 °C, 300 mM NaCl, pH 7.5; SEDPHAT, 1:1 heteroassociation model; N is the competent fraction of C3G; details: both partners purified
C3G-AAPA-Y554H = biological target: T2, C3G-AAPA-Y554H; assay: as above; details: both partners purified

| Kd (C3G-AAPA) | stoichiometry N (C3G-AAPA-Y554H) | Binder |
| --- | --- | --- |
| 2100 nM |  | CrkL (full-length) (natural protein, human, UniProt P46109 1-303, looked up, human CrkL, residues 1-303, in pETEV15b; also called Crk-like protein; source: E. coli BL21 (DE3), purified (IMAC, TEV digestion, SEC); not shown: His, N-terminal, cleaved) MSSARFDSSDRSAWYMGPVSRQEAQTRLQGQRHGMFLVRDSSTCPGDYVLSVSENSRVSHYIINSLPNRRFKIGDQEFDHLPALLEFYKIHYLDTTTLIEPAPRYPSPPMGSVSAPNLPTAEDNLEYVRTLYDFPGNDAEDLPFKKGEILVIIEKPEEQWWSARNKDGRVGMIPVPYVEKLVRSSPHGKHGNRNSNSYGIPEPAHAYAQPQTTTPLPAVSGSPGAAITPLPSTQNGPVFAKAIQKRVPCAYDKTALALEVGDIVKVTRMNINGQWEGEVNGRKGLFPFTHVKIFDPQNPDENE |
|  | 0.47 | CrkL-SH3N (domain or fragment, human, UniProt P46109 125-182, looked up, human CrkL, SH3N domain, residues 125-182, in pETEV15b; source: E. coli BL21 (DE3), purified (IMAC, TEV digestion, SEC); not shown: His, N-terminal, cleaved) LEYVRTLYDFPGNDAEDLPFKKGEILVIIEKPEEQWWSARNKDGRVGMIPVPYVEKLV |
